Experimental findings from PMC5514147, “Characterization of HIV-1 integrase interaction with human Ku70 protein and initial implications for drug targeting” (Scientific Reports, 2017) are described below.

The assay concerns the target T1, Ku70_1-250 mutant (N-terminal alpha/beta-domain of Ku70) with N-terminal GST-tag (human, UniProt P12956 1-250).
T1 construct: Ku70, human, residues 1-250 (N-terminal alpha/beta domain); also called Ku_1-250; Ku70 N-terminal domain; not shown: GST, N-terminal, kept
In words: pull-down; GST-pull-down: GST-Ku70 proteins (or GST) held on glutathione-agarose, His6-IN proteins as prey; buffer A (20 mM Hepes pH 7.5, 100 mM NaCl, 7.5 mM MgCl2, 2 mM 2-mercaptoethanol, 50 ug/ml BSA, 0.1% NP40), room temperature, Western blot; Kd from increasing IN at 50 nM Ku70 mutant. To be noted: both partners purified. (In western blotting, separated proteins are transferred to a membrane and probed.)

T1 sequence (P12956 1-250, change not shown): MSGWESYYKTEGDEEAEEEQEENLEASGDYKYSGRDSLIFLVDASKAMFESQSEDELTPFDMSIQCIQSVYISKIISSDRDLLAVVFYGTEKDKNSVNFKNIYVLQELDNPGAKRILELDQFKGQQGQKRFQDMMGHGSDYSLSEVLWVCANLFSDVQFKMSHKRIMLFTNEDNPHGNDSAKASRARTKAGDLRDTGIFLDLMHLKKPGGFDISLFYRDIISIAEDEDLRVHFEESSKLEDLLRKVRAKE

B1: IN_1-220 (HIV-1 integrase with truncated C-terminal domain), N-terminal His6-tag (domain or fragment)
chain: FLDGIDKAQDEHEKYHSNWRAMASDFNLPPVVAKEIVASCDKCQLKGEAMHGQVDCSPGIWQLDCTHLEGKVILVAVHVASGYIEAEVIPAETGQETAYFLLKLAGRWPVKTIHTDNGSNFTGATVRAACWWAGIKQEFGIPYNPQSQGVVESMNKELKKIIGQVRDQAEHLKTAVQMAVFIHNFKRKGGIGGYSAGERIVDIIATDIQTKELQKQITKI
notes: not shown: His6, N-terminal, kept
On to B1, for which binding was put at a Kd of 120 ± 30 nM.

As a reminder, the Kd is the equilibrium constant for the complex coming apart. A lower Kd goes with higher affinity.
